Laboratory results taken from patent publication US20220135665A1.
Where “and” joins values, the source holds several entries; their conditions need not be identical. Equal values may be shown once.

B1: Brolucizumab (scFv, INN chains, looked up, V domains shown)
VH: EVQLVESGGGLVQPGGSLRLSCTASGFSLTDYYYMTWVRQAPGKGLEWVGFIDPDDDPYYATWAKGRFTISRDNSKNTLYLQMNSLRAEDTAVYYCAGGDHNSGWGLDIWGQGTLVTVSS
VL: EIVMTQSPSTLSASVGDRVIITCQASEIIHSWLAWYQQKPGKAPKLLIYLASTLASGVPSRFSGSGSGAEFTLTISSLQPDDFATYYCQNVYLASTNGANFGQGTKLTVL
modifications: scFv
B2: humanized antibody VEGF-H988 Fab fragment (Fab, V domains shown)
VH: QSVQESGPGLVKPSETLSLTCTVSGIDLSSYAISWVRQPPGKGLEYIGYIWNDLFTYYASWAKGRVTISVDTSKNQVDLKLSSVTAADTAVYFCARGTLGDYGGMDPWGQGTLVTVSS
VL: ELQLTQSPSSLSASVGDRVTITCQSSKFLWQGRRLAWYQQKPGKVPKLLIYGASTLASGVPSRFKGSGSGTDFTLTISSLQPEDVATYYCAGYKSYDGDVVGFGGGTKVEIKR
B3: VEGF-H988 (sample label in Table 3) (antibody, V domains shown)
VH: B2 VH
VL: ELQLTQSPSSLSASVGDRVTITCQSSKFLWQGRRLAWYQQKPGKVPKLLIYGASTLASGVPSRFKGSGSGTDFTLTISSLQPEDVATYYCAGYKSYDGDVVGFGGGTKVEIK

What was measured:
[1] = target: recombinant human VEGF165 protein (human) (UniProt P15692); experiment: cell-based or functional assay
[2] = target: recombinant human VEGF165 protein (human) (UniProt P15692); experiment: streptavidin-coated sensor with immobilized biotin-labeled VEGF165, Fab at multiple concentrations
[3] = target: recombinant human VEGF165 protein (human) (UniProt P15692); experiment: ELISA; coated VEGF165 titrated (0.15-3000 ng/mL), Fab fixed at 1 ug/mL; EC50 is in coated antigen concentration
[4] = target: recombinant human VEGF165 protein (human) (UniProt P15692); experiment: streptavidin-coated sensor with immobilized biotin-labeled VEGF165; reference Lucentis
[5] = target: recombinant human VEGF165 protein (human) (UniProt P15692); experiment: Table 3, binding affinity to recombinant VEGF165 (streptavidin-coated sensor, biotin-labeled VEGF165)

Binder	EC50(nM), neutralization of HUVEC proliferation, VEGF165 at 10 ng/mL [1]	EC50(nM), neutralization of HUVEC proliferation, VEGF165 at 100 ng/mL [1] [nM]	EC50(nM), neutralization of HUVEC proliferation, VEGF165 at 1000 ng/mL [1] [nM]	Maximum neutralization rate (%), VEGF165 at 10 ng/mL [1] [%]	Maximum neutralization rate (%), VEGF165 at 100 ng/mL [1] [%]	Maximum neutralization rate (%), VEGF165 at 1000 ng/mL [1] [%]	Kd [2] [pM]	koff [2] [s⁻¹]	kon [2] [M⁻¹ s⁻¹]	EC50 [3] [µg/mL]	fold affinity against Lucentis [4] [fold]	Kd [5] [pM]	koff [5] [s⁻¹]	kon [5] [M⁻¹ s⁻¹]
B1	0.41 nM	6.74	71.2	100	101	101	–	–	–	–	–	–	–	–
B2	0.23 nM and 0.18 nM and 0.22 nM	–	–	–	–	–	154	4.21e-05	274000	0.0187	3.75	–	–	–
B3	–	–	–	–	–	–	–	–	–	–	–	19.5	6.7e-06	344000
